± gives the uncertainty stated by the source.
Experiment: protein stability index of a GFP-peptide fusion (yeast GPS) (PSI 1-4); higher = more stable; sorted into four equal gates, so the index is relative within each strain
Method in brief: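 The protein stability index combines read frequencies across sorting gates, each weighted by its gate number and then summed. To obtain those frequencies, a pooled yeast library of GFP fusions to tiled 17-residue yeast protein peptides, on a plasmid also expressing Cherry, was grown to mid-log phase in leucine-free medium. The cells were sorted into four equal gates by GFP/Cherry ratio before plasmid amplification by PCR and Illumina sequencing.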

EKVRDYENSISKDLRSV [IRR1]
protein stability index (doa10∆): 2.25 ± 0.093
protein stability index (pdr5∆): 1.98 ± 0.094
protein stability index (san1∆): 1.82 ± 0.082
protein stability index (ubr1∆): 2.03 ± 0.051

FSSNLSYANHLEESDVE [YOR098C/NUP1]
protein stability index (doa10∆): 2.45 ± 0.087
protein stability index (pdr5∆): 2.22 ± 0.059
protein stability index (san1∆): 1.91 ± 0.082
protein stability index (ubr1∆): 1.89 ± 0.052

PISKHSKQAIYTRAAAS [RPS25B]
protein stability index (doa10∆): 2.64 ± 0.067
protein stability index (pdr5∆): 2.63 ± 0.054
protein stability index (san1∆): 2.43 ± 0.061
protein stability index (ubr1∆): 2.83 ± 0.051

KIVDKDGIRQVDDFQAQ [PRE1]
protein stability index (doa10∆): 2.9 ± 0.14
protein stability index (pdr5∆): 2.9 ± 0.11

EVALFSQKAKLMTFNAE [YLR335W/NUP2]
protein stability index (doa10∆): 2.27 ± 0.08
protein stability index (pdr5∆): 1.47 ± 0.057
protein stability index (san1∆): 1.5 ± 0.1
protein stability index (ubr1∆): 1.4 ± 0.085

LDDTTIPVGLMAQENSM [MCD1]
protein stability index (doa10∆): 1.5 ± 0.071
protein stability index (pdr5∆): 1.84 ± 0.093
protein stability index (san1∆): 1.56 ± 0.17
protein stability index (ubr1∆): 1.87 ± 0.078

VTNALDNIDEKVVKAIR [NUT1]
protein stability index (doa10∆): 3.04 ± 0.16
protein stability index (pdr5∆): 2.37 ± 0.14
protein stability index (san1∆): 3.07 ± 0.083
protein stability index (ubr1∆): 1.61 ± 0.048

RAHGRINKYESSPSHIE [RPL17A]
protein stability index (doa10∆): 2.9 ± 0.07
protein stability index (pdr5∆): 3.4 ± 0.077
protein stability index (san1∆): 2.99 ± 0.08
protein stability index (ubr1∆): 3.17 ± 0.061

RMLLNLCKSATTKMWPT [BRR2]
protein stability index (doa10∆): 1.47 ± 0.068
protein stability index (pdr5∆): 1.79 ± 0.1
protein stability index (san1∆): 1.7 ± 0.12
protein stability index (ubr1∆): 1.99 ± 0.069

NQMGMGTNNGMSMGGGV [YOR098C/NUP1]
protein stability index (doa10∆): 3.39 ± 0.13
protein stability index (pdr5∆): 3.15 ± 0.17
protein stability index (san1∆): 3.33 ± 0.099
protein stability index (ubr1∆): 3.24 ± 0.11

STSYHLNSTLESLYDLI [MED6]
protein stability index (doa10∆): 2.86 ± 0.12
protein stability index (pdr5∆): 2.62 ± 0.094
protein stability index (san1∆): 3 ± 0.084
protein stability index (ubr1∆): 2.51 ± 0.12

YQMHIKTSKDIAVLRSK [FAS1]
protein stability index (doa10∆): 2.25 ± 0.051
protein stability index (pdr5∆): 2.14 ± 0.062
protein stability index (san1∆): 2.3 ± 0.062
protein stability index (ubr1∆): 2.46 ± 0.072

FSQEALQYVVERVGKRT [FAS1]
protein stability index (doa10∆): 1.07 ± 0.091
protein stability index (pdr5∆): 1.24 ± 0.11
protein stability index (ubr1∆): 1.17 ± 0.09

PRGTAKLIIHRKNDNAN [SMC3]
protein stability index (doa10∆): 1.68 ± 0.29
protein stability index (pdr5∆): 2.34 ± 0.18
protein stability index (ubr1∆): 1.95 ± 0.087

MPPKFDPNEVKYLYLRA [RPL12A]
protein stability index (doa10∆): 2 ± 0.093
protein stability index (pdr5∆): 2.09 ± 0.17
protein stability index (san1∆): 2.98 ± 0.2
protein stability index (ubr1∆): 1.78 ± 0.079

DFDDFLKLGLVEYLDVN [RET1]
protein stability index (doa10∆): 3.01 ± 0.092
protein stability index (pdr5∆): 3.07 ± 0.1
protein stability index (san1∆): 3 ± 0.11
protein stability index (ubr1∆): 3.06 ± 0.1

ARYVIATSTKVSVEGVN [RPL6A]
protein stability index (doa10∆): 1.62 ± 0.051
protein stability index (pdr5∆): 1.52 ± 0.048
protein stability index (san1∆): 1.47 ± 0.11
protein stability index (ubr1∆): 1.27 ± 0.034

KLLKIPKFISEALAFTS [YDL116W/NUP84]
protein stability index (doa10∆): 2.32 ± 0.093
protein stability index (pdr5∆): 2.46 ± 0.086
protein stability index (san1∆): 2.24 ± 0.1
protein stability index (ubr1∆): 2.75 ± 0.05

PAFKPTEKKFTKEQYAA [RPL5]
protein stability index (doa10∆): 2.93 ± 0.089
protein stability index (pdr5∆): 3.12 ± 0.083
protein stability index (san1∆): 2.79 ± 0.067
protein stability index (ubr1∆): 3.04 ± 0.1

SIGSIYQWNLDGLQQLD [RPN1]
protein stability index (doa10∆): 3.26 ± 0.1
protein stability index (pdr5∆): 3.4 ± 0.068
protein stability index (san1∆): 1.93 ± 0.1
protein stability index (ubr1∆): 2.96 ± 0.067

LGLGIAFAGSKNDEVLG [RPN1]
protein stability index (doa10∆): 3.09 ± 0.3
protein stability index (pdr5∆): 2.94 ± 0.15
protein stability index (san1∆): 2.81 ± 0.26
protein stability index (ubr1∆): 3.04 ± 0.14

KNEKLKFQETLLRQKIE [ISW2]
protein stability index (doa10∆): 1.36 ± 0.11
protein stability index (pdr5∆): 1.37 ± 0.13
protein stability index (san1∆): 1.16 ± 0.15
protein stability index (ubr1∆): 1.15 ± 0.071

RLDSYKVIEQPITSETA [RPL25]
protein stability index (doa10∆): 1.94 ± 0.055
protein stability index (pdr5∆): 2.31 ± 0.079
protein stability index (san1∆): 2.31 ± 0.079
protein stability index (ubr1∆): 2.5 ± 0.067

ARQQVAQQLRNQQQQQQ [GAL11]
protein stability index (doa10∆): 2.73 ± 0.064
protein stability index (pdr5∆): 3.2 ± 0.13
protein stability index (san1∆): 2.85 ± 0.097
protein stability index (ubr1∆): 2.92 ± 0.076

GVAHLLNRFNFQNTNTR [QCR2]
protein stability index (doa10∆): 2.69 ± 0.084
protein stability index (pdr5∆): 2.58 ± 0.086
protein stability index (san1∆): 2.43 ± 0.15
protein stability index (ubr1∆): 2.5 ± 0.062

ILSQQFDKIIKIREDHI [SRB8]
protein stability index (doa10∆): 2.62 ± 0.066
protein stability index (pdr5∆): 3.05 ± 0.07
protein stability index (san1∆): 3.04 ± 0.052
protein stability index (ubr1∆): 2.84 ± 0.054

RAGQRTRFKAVVVVGDS [RPS2]
protein stability index (doa10∆): 2.07 ± 0.056
protein stability index (pdr5∆): 2.2 ± 0.063
protein stability index (san1∆): 2.28 ± 0.088
protein stability index (ubr1∆): 2.29 ± 0.048

LVTPKSFLFDVLKTLEY [NUT1]
protein stability index (doa10∆): 2.91 ± 0.18
protein stability index (pdr5∆): 2.98 ± 0.18
protein stability index (san1∆): 3.1 ± 0.15
protein stability index (ubr1∆): 2.92 ± 0.18

LHVVSKSSIEKDPSPEI [SIN4]
protein stability index (doa10∆): 2.91 ± 0.054
protein stability index (pdr5∆): 3.03 ± 0.066
protein stability index (san1∆): 3.13 ± 0.052
protein stability index (ubr1∆): 3.14 ± 0.051

IGSTSKRPIESGTSSDP [YIL149C/MLP2]
protein stability index (doa10∆): 3.23 ± 0.087
protein stability index (pdr5∆): 3.22 ± 0.1
protein stability index (san1∆): 3.17 ± 0.11
protein stability index (ubr1∆): 3.36 ± 0.064

AMNDKDLTMGQVGERIK [RPO21]
protein stability index (doa10∆): 3.31 ± 0.17
protein stability index (pdr5∆): 3.26 ± 0.14
protein stability index (san1∆): 2.82 ± 0.13
protein stability index (ubr1∆): 3.08 ± 0.099

SKVVIDSIIDNIVKLCF [IRR1]
protein stability index (doa10∆): 2.75 ± 0.079
protein stability index (pdr5∆): 2.32 ± 0.034
protein stability index (san1∆): 2.2 ± 0.089
protein stability index (ubr1∆): 2.45 ± 0.026

AFLSFLAYRNYWTQYLG [YJL039C/NUP192]
protein stability index (doa10∆): 1.33 ± 0.057
protein stability index (pdr5∆): 1.26 ± 0.04
protein stability index (san1∆): 1.26 ± 0.11
protein stability index (ubr1∆): 1.26 ± 0.068

LTIFDSVDESARIKDAF [YJL039C/NUP192]
protein stability index (doa10∆): 3.01 ± 0.11
protein stability index (pdr5∆): 3.07 ± 0.094
protein stability index (san1∆): 3.19 ± 0.051
protein stability index (ubr1∆): 3.02 ± 0.093

NNTTPSSTGNANTSNNL [YJL041W/NSP1]
protein stability index (doa10∆): 3.34 ± 0.093
protein stability index (pdr5∆): 3.29 ± 0.08
protein stability index (san1∆): 3.46 ± 0.095
protein stability index (ubr1∆): 3.37 ± 0.07

NKVSYYGNPTSKESWRY [RTT102]
protein stability index (doa10∆): 3.23 ± 0.11
protein stability index (pdr5∆): 3.19 ± 0.13
protein stability index (san1∆): 2.84 ± 0.17
protein stability index (ubr1∆): 3.42 ± 0.098

KAKYNTPKYRLVVRFTN [RPL5]
protein stability index (doa10∆): 1.39 ± 0.049
protein stability index (pdr5∆): 1.53 ± 0.073
protein stability index (san1∆): 1.24 ± 0.21
protein stability index (ubr1∆): 1.12 ± 0.068

KPSFSFGVPNSSKNETS [YLR335W/NUP2]
protein stability index (doa10∆): 2.13 ± 0.077
protein stability index (pdr5∆): 1.64 ± 0.082
protein stability index (san1∆): 2.46 ± 0.098
protein stability index (ubr1∆): 1.5 ± 0.059

DRRKARKAYFTAPSSQR [RPL26A]
protein stability index (doa10∆): 2.59 ± 0.069
protein stability index (pdr5∆): 2.49 ± 0.091
protein stability index (san1∆): 2.76 ± 0.057
protein stability index (ubr1∆): 2.59 ± 0.068

MSSDASTYRLEDVLSSF [SSN2]
protein stability index (doa10∆): 2.21 ± 0.073
protein stability index (pdr5∆): 2.38 ± 0.069
protein stability index (san1∆): 1.9 ± 0.1
protein stability index (ubr1∆): 2.56 ± 0.091

SEDVSRDHEKDTYRTLM [YIL149C/MLP2]
protein stability index (doa10∆): 3.36 ± 0.047
protein stability index (pdr5∆): 3.41 ± 0.051
protein stability index (san1∆): 3.43 ± 0.035
protein stability index (ubr1∆): 3.33 ± 0.047

HHRIFDSSAHFKGALTI [YMR129W/POM152]
protein stability index (doa10∆): 2.56 ± 0.073
protein stability index (pdr5∆): 2.73 ± 0.084
protein stability index (san1∆): 2.44 ± 0.14
protein stability index (ubr1∆): 2.62 ± 0.053

SWNLTGTILSSAGDDGK [YGL100W/SEH1]
protein stability index (doa10∆): 1.37 ± 0.062
protein stability index (pdr5∆): 1.88 ± 0.068
protein stability index (san1∆): 3.03 ± 0.077
protein stability index (ubr1∆): 2.98 ± 0.084

AVLKKIQSKAVEQGYED [YCG1]
protein stability index (doa10∆): 3.05 ± 0.12
protein stability index (pdr5∆): 3.38 ± 0.092
protein stability index (san1∆): 3.08 ± 0.072
protein stability index (ubr1∆): 3.07 ± 0.084

NINATNTSVLMKLKLMI [YCS4]
protein stability index (doa10∆): 2.08 ± 0.093
protein stability index (pdr5∆): 1.5 ± 0.079
protein stability index (san1∆): 1.48 ± 0.13
protein stability index (ubr1∆): 2.24 ± 0.077

PRSPGRSPTRRLELLQL [SMC4]
protein stability index (doa10∆): 1.41 ± 0.27
protein stability index (pdr5∆): 2.12 ± 0.15
protein stability index (san1∆): 1.99 ± 0.25
protein stability index (ubr1∆): 1.7 ± 0.13

SKFNNADDVFTGTGLQD [RPC31]
protein stability index (doa10∆): 3.35 ± 0.1
protein stability index (pdr5∆): 3.38 ± 0.091
protein stability index (san1∆): 3.12 ± 0.056
protein stability index (ubr1∆): 3.17 ± 0.066

NLMGNRNNHNSNTSTSK [SNF12]
protein stability index (doa10∆): 3 ± 0.073
protein stability index (pdr5∆): 3.17 ± 0.096
protein stability index (san1∆): 2.92 ± 0.12
protein stability index (ubr1∆): 3.07 ± 0.054

FEDQVTNILTKVDINAD [PRP28]
protein stability index (doa10∆): 3.19 ± 0.2
protein stability index (san1∆): 3.2 ± 0.18

IMKNKDFILSLLHHVSE [YJL039C/NUP192]
protein stability index (doa10∆): 2.41 ± 0.12
protein stability index (pdr5∆): 2.35 ± 0.099
protein stability index (san1∆): 1.92 ± 0.11
protein stability index (ubr1∆): 2.52 ± 0.065

From the supplement of paper PMC9732359
